From PMC7610691 (Nature structural & molecular biology, 2020) come the findings set out here.

In experiment [1] the target is T1, Ycs4 (S. cerevisiae condensin HEAT-repeat subunit) (S. cerevisiae, UniProt Q06156 1-1176).
T1 sequence: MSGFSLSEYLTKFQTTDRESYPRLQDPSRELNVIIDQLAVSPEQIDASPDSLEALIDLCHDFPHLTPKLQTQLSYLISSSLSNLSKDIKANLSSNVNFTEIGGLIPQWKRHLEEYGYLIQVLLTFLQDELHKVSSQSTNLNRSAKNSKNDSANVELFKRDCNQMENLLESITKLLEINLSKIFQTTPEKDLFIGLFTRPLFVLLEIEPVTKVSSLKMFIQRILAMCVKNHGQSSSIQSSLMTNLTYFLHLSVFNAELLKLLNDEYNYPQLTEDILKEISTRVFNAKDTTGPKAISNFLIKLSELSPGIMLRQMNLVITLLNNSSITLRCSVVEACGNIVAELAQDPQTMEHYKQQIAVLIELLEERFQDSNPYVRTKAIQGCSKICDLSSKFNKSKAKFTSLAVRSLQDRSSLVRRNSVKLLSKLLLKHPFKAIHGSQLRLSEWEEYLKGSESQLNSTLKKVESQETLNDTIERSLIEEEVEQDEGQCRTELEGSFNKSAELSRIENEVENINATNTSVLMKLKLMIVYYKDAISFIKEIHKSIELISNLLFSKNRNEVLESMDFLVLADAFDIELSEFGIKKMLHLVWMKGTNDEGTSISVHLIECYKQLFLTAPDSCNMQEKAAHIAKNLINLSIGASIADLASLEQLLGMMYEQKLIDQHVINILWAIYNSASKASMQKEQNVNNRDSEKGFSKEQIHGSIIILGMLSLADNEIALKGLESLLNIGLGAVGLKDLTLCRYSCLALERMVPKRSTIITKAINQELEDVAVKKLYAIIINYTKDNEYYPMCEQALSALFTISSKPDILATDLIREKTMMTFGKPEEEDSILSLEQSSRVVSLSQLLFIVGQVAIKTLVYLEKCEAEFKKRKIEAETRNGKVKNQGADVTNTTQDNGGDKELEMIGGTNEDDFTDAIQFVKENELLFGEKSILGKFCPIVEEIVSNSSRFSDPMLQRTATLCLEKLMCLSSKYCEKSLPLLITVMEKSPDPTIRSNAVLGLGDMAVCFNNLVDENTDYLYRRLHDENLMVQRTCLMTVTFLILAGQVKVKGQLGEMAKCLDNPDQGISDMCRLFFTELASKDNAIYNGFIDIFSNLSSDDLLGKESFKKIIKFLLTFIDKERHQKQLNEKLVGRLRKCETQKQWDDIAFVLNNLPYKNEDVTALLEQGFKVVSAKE
Description: cryo-EM structure.

The target in experiment [2] is T2, Smc2 (S. cerevisiae condensin subunit) (S. cerevisiae, UniProt P38989 1-1170).
T2 sequence: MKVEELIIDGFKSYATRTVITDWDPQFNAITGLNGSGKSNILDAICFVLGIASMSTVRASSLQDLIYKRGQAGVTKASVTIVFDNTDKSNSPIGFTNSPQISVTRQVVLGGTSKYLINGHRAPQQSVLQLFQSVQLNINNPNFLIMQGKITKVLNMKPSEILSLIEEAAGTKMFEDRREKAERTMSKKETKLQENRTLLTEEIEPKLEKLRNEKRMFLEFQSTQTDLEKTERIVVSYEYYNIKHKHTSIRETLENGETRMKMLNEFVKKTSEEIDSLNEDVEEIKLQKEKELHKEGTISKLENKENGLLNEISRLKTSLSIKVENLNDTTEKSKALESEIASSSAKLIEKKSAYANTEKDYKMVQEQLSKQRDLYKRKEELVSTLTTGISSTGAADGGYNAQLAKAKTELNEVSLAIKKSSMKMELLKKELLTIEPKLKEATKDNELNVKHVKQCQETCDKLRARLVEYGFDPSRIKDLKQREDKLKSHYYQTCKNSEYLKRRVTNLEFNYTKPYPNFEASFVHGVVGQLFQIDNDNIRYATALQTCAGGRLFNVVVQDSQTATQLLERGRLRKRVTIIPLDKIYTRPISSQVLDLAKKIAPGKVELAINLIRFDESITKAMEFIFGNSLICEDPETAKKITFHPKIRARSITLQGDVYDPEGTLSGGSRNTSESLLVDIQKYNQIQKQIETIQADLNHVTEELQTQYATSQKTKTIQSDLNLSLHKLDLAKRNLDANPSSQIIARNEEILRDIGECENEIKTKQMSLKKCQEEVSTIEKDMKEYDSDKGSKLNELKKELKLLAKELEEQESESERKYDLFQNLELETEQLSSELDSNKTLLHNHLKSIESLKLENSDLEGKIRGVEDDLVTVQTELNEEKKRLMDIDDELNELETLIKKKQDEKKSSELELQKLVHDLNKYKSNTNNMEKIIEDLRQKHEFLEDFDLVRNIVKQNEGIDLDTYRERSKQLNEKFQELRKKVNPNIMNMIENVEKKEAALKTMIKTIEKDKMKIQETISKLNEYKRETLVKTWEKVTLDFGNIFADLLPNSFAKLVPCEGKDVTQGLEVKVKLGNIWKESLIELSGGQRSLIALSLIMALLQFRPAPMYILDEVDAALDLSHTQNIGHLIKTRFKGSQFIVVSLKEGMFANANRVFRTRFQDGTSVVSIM
Put plainly: cryo-EM structure.

B1: Brn1 (S. cerevisiae condensin kleisin subunit) (natural protein)
chain: MTTQLRYENNDDDERVEYNLFTNRSTMMANFEEWIKMATDNKINSRNSWNFALIDYFYDLDVLKDGENNINFQKASATLDGCIKIYSSRVDSVTTETGKLLSGLAQRKTNGASNGDDSNGGNGEGLGGDSDEANIEIDPLTGMPISNDPDVNNTRRRVYNRVLETTLVEFETIKMKELDQELIIDPLFKKALVDFDEGGAKSLLLNTLNIDNTARVIFDASIKDTQNVGQGKLQRKEEELIERDSLVDDENEPSQSLISTRNDSTVNDSVISAPSMEDEILSLGMDFIKFDQIAVCEISGSIEQLRNVVEDINQAKDFIENVNNRFDNFLTEEELQAAVPDNAEDDSDGFDMGMQQELCYPDENHDNTSHDEQDDDNVNSTTGSIFEKDLMAYFDENLNRNWRGREHWKVRNFKKANLVNKESDLLEETRTTIGDTTDKNTTDDKSMDTKKKHKQKKVLEIDFFKTDDSFEDKVFASKGRTKIDMPIKNRKNDTHYLLPDDFHFSTDRITRLFIKPGQKMSLFSHRKHTRGDVSSGLFEKSTVSANHSNNDIPTIADEHFWADNYERKEQEEKEKEQSKEVGDVVGGALDNPFEDDMDGVDFNQAFEGTDDNEEASVKLDLQDDEDHKFPIRENKVTYSRVSKKVDVRRLKKNVWRSINNLIQEHDSRKNREQSSNDSETHTEDESTKELKFSDIIQGISKMYSDDTLKDISTSFCFICLLHLANEHGLQITHTENYNDLIVNYEDLATTQAAS
With B1, the binding result in experiment [1] and in experiment [2] was “binds” throughout.
